From the supplement of paper PMC9170038

Tested on: K4 kissing-loop RNA reporter
Experiment: apparent KD of K4 kissing-loop reporter; higher = weaker reporter binding
Settings: Eterna round: R107
Protocol: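 RNA-MaP round R107: designed RNA switches with theophylline, tryptophan, arginine or FMN aptamers are transcribed on-chip within common flanks. They are titrated with a labelled K4 kissing-loop RNA reporter in RNA-MaP buffer (100 mM Tris pH 7.5, 80 mM KCl, 4 mM MgCl2), without ligand or with the indicated ligand. Median apparent KD per design.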

[1] = input ligand: theophylline 20 uM
[2] = input ligand: tryptophan 2.4 mM
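Note: bound reporter read as fluorescence of individual clusters on recovered sequencing chips by microscopy, with normalized cluster intensities fitted with a binding model.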

| Sequence | apparent KD of K4 kissing-loop reporter (input ligand: FMN 200 uM) [nM] | apparent KD of K4 kissing-loop reporter (input ligand: arginine 13.2 mM) [nM] | apparent KD of K4 kissing-loop reporter (input ligand: none) [nM] | apparent KD of K4 kissing-loop reporter [1] [nM] | apparent KD of K4 kissing-loop reporter [2] [nM] |
| --- | --- | --- | --- | --- | --- |
| GAUAUAGUGAUGUUAUAUACUGAUAGACAACGAGGACCGGUACGGCCGCCACUCGAGAGGGUGAAAAUGAUGAUAAAAUAAUAAU [#01 K4 Tryptophan A Exclusion] | 341 | 283 | 341 | 374 | 269 |
| GAUCCAUGACAAGGAUAUUCGCCAACGGUGCCGGAGUGAUGUUCUGCACAACAGACUACAAGUAAGGAAGAAGGUGUCAGUUACC [theeternabot_sameState_KL_FMN_B_29] | 595 | 843 | 946 | 609 | 561 |
| GAUGAUCGCGCGGCCGCCACUGGUCAGUGAUGUUGACAUUAAUGCGCCGAGUAGUAACGGCGCAGCAGGACCGGGCGCGAUGUAG [#12 K4 Tryptophan B Same State] | 144 | 141 | 145 | 121 | 163 |
| GAUUCCCAAGCGGCCGCCACUUAUAGUGAUGUUAUAGGGACUGCGGAUCAGGACAAUCAUACAUAAAGGACCGGGCUAUUCUGAC [theeternabot_exclusion_KL_Trp_B_1] | 264 | 246 | 305 | 255 | 261 |
| GCAAAACUCAGUGAUGUUGAGAUAUCGGAAGGAGCGCGUGAAAACGCAGGUAGGUCGCCGAUUCAAUGAGUUUCUCGUUGUUUGC [Arginine A K4 20] | 248 | 305 | 318 | 303 | 288 |
| GCAGUGAUGUUGCACGAGUAGGCUGGAGUACGAGGACCGGUACGGCCGCCACUCGUACGAAAGUCGCUAAUUUAUGGAAUGGUGA [#07 K4 Tryptophan A Same State] | 650 | 623 | 668 | 602 | 467 |
| GCAGUGAUGUUGCUGAUGUACAGUGGGAUACGAGGACCGGUACGGCCGCCACUCGUACAGAAUUUGUUAAUACAUCGAUAAGUGA [XV] | 377 | 360 | 526 | 436 | 522 |
| GCAGUGAUGUUGCUGGUGUGCAGUGGUAGUCGAGGACCGGUACGGCCGCCACUCGGUGAGAACCUGCUAAUACAUCGAUAAGUGA [XVIII] | 550 | 369 | 738 | 463 | 558 |
| GCAUAGGCCCAUCGGAAUUCGAGACCAGCACGAGGACCGGUACGGCCGCCACUCGUGCAGUGAUGUUGCACGAUUGGGAAACCGC [Beanveceti] | 115 | 100 | 101 | 104 | 111 |
| GCAUCCGAUGCAGGAUAUAGAUGAACGAGUGAUGUUUGGAAUUUAUGUCCAAAGCCUACGAUCAAACUAGAAGGGCAUCGGAUGC | 334 | 266 | 161 | 167 | 192 |
| GCAUGUAUGCGAGAGUGAUGUUCAUGGUUUCGAGGACCGGUACGGCCGCCACUCGCGAUCCGGCGUACAAUCGUGAAGUUAUCAU [theeternabot_sameState_KL_Trp_A_42] | 736 | 469 | 655 | 542 | 672 |
| GCCAGAGCGCGAAGGAGCGCCGUGACAGGUUACUGCCUUGGGCAGUGAUGUUGCUCAAUCUGGCAGGUAGGUCGCGUGCUCUGGC | 179 | 185 | 215 | 202 | 168 |
| GCCGUACGCAUGGAUACCAGCAUUUAUGACACACUGCUAGUGAUGUUAGCUAUGCGUAUAUGCCCUUGGCAGCCAUGCGUACGGC | 150 | 128 | 140 | 87.4 | 133 |
| GCCGUACGCAUGGAUACCAGUCUUAGAGUGAUGUUCUAAACGAUUGCGCCUGGAUCAAUGGACCCUUGGCAGCCAUGCGUACGGC | 130 | 119 | 129 | 92.4 | 154 |
| GCCGUAGAUGGAAGGAGCGACUUCAGCGGAUAAACGUGACAAUUGGAGUGAUGUUCGCAAGGUCAGGUAGGUCGCCAUCUACGGC | 819 | 211 | 260 | 274 | 313 |
| GCCGUAGAUGGAAGGAGCGUGAUAAGUGAAUUAUCCAGUGAUGUUGGAUCUUAGAUAGGAUCACAGGUAGGUCGCCAUCUACGGC | 244 | 181 | 217 | 297 | 192 |
| GCCGUAGAUUGAAGGAGCGGUAUGGGCGUUGGCUGAGUGAUGUUCAGGAAAAGUGGCUUCUACCAGGUAGGUCGCAAUCUACGGC | 133 | 110 | 130 | 139 | 109 |
| GCCGUAGAUUGAAGGAGCGUGGACCUAUCGCUUGAACAGUGAUGUUGUUUAUCUAGGAAGCCGCAGGUAGGUCGCAAUCUACGGC | 331 | 292 | 420 | 337 | 382 |
| GCCUAGGCUCGAAAGAGCCUAGGCUGGGCUCAGGAUAUCCGGAAACGGAGAAGGGAGGGACUAGUGAUGUUAGGGAUUCCCUAUG | 461 | 264 | 290 | 251 | 203 |
| GCCUGUGCACGAAGGAGCGCCGUGACAGGUUACUGCCUUGGGCAGUGAUGUUGCUCAAUCUGGCAGGUAGGUCGCGUGCACAGGC | 132 | 145 | 166 | 138 | 102 |
| GCCUUUGUACAGUCCGUUUGUCAUGUGGAUACCAGCAGGAUAGCUUGCCCUUGGCAGCCAUCCAUUUAAUGUAGUGAUGUUACGC [theeternabot_exclusion_KL_Theo_A_13] | 398 | 440 | 477 | 412 | 338 |
| GCGAAGAAGGUUGAUACCAGUCUUGCGUGUCAAGCGCCAGUGAUGUUGGGCCUGUAGAUCGACCCUUGGCAGCAACCUCGAAAUG [theeternabot_sameState_KL_Theo_B_28] | 836 | 563 | 844 | 748 | 655 |

| Sequence | apparent KD of K4 kissing-loop reporter (input ligand: FMN 200 uM) [nM] | apparent KD of K4 kissing-loop reporter (input ligand: arginine 13.2 mM) [nM] | apparent KD of K4 kissing-loop reporter (input ligand: none) [nM] | apparent KD of K4 kissing-loop reporter [1] [nM] | apparent KD of K4 kissing-loop reporter [2] [nM] |
| --- | --- | --- | --- | --- | --- |
| GCGCGCGGCGGAGGAUAUAGCAGGUGAUCCGAGAAAGUGAGUGAUGUUUACGGAGAUGAUGAUAUGUUAGAAGGCCGCCGCGCGC [abcdefghijklmnopqrstuv] | 515 | 416 | 437 | 425 | 558 |
| GCGCGGCCCAGUGAUGUUGGGCCUCGGAGACGAGGACCGGUACGGCCGCCACUCGUCCGCGCAGCUGAGGCAAAAGCCUCGGCAA [Omei KL Tryp A SS B v6] | 207 | 190 | 228 | 187 | 107 |
| GCGCGUCAUGUCAGCGGUGACACUGUCGAUACCAGCGCCGUAAGGCGCCCUUGGCAGCGACGUGCUGGAGUGAUGUUCCAGCGUC [#2 Exclusion - Theophylline A Attempt #20 (HarryS)] | 178 | 110 | 149 | 126 | 141 |
| GCGGCGGGCCAAGGAUAUAUAUUGGAGUGAUGUUGUUCAUUUAUUUGAGCUAGUGAUGUUGGUCAAAUAGAAGGUGGCCCGCCGC [whbob_Ex_FMNB__2th217] | 56.5 | 34.6 | 59.3 | 44.8 | 62 |
| GCGGUGUUAUGCCCGAGGGUAUAGUUGCCAAAGGAUAUGAUUGUUGUCAGAAGGUUGCGCUUGAUCAGUGAUGUUGGUCUCCAAC [theeternabot_sameState_KL_FMN_A_12] | 398 | 275 | 373 | 342 | 337 |
| GCGUGCCAUGCAGGAUAUAGUUGUUCGAGUGAUGUUCGAGCCUUGCUAAGUUCGGAGCAUCAGCUUCUAGAAGGGCAUGGCACGC | 156 | 205 | 618 | 241 | 347 |
| GCUAGGCAUGCAGGAUAUCGUGGAGUGAUGUUCCGUUGGCUGCUAGCGGAAAACGCUAGCAGCCUACGAGAAGGGCAUGCCUAGC | 192 | 356 | 425 | 410 | 368 |
| GCUAUGGUAGGAAGGAGCGCUACUUUGUUUUUACGAGUGAUGUUCGGUAGCAGAGUGUUAAAGCAGGUAGGUCGCCUACUAUAGC [Arginine B K4 19] | 225 | 244 | 244 | 307 | 280 |
| GCUCGGGAGUGAUGUUCCAAGUGGUGUUAACGAGGACCGGUACGGCCGCCACUCGAUACGGCCGGACCGUAGGAUAAACUGGAGC [Same State - Tryptophan A (Freestyle 12)] | 149 | 110 | 125 | 185 | 144 |
| GGACGACAGGCGGCCGCCACUCACAGCAGCCAGCGAGUGAUGUUCGUAGCGGAGUGAUGUUCCGAGAGGACCGGGUCUGCAGUCC [Same State Tryptophan B GF 17] | 246 | 178 | 224 | 168 | 223 |
| GGACGACAGUCGGCCGCCACUCACAGCCGCCAGUGAUGUUGGAUUGUAGCGGAGUGAUGUUUCGCGAGGACCGGGACUGCAGUCC [Same State Tryptophan B GF 15] | 417 | 380 | 455 | 413 | 460 |
| GGAGGCCAGGCCUGCGAAGUGAUGUUUUGACGAGGACCGGUACGGCCGCCACUCGAAUGUUCUAUCAUCGUACGAACUUCUGCGU [theeternabot_exclusion_KL_Trp_A_26] | 593 | 415 | 496 | 527 | 394 |
| GGAGGUUGGUGCGAUACCAGACCUGCAGUGAUGUUGCGCCAAAGUGAGUGAUGUUCACCGGUCCCUUGGCAGCGCGUCCCUUUAG [Same State Theophylline B GF 15] | 848 | 729 | 1190 | 707 | 860 |
| GGAGUUACCUGGGAUACCAGCCGGAGGCCCAGAGCUCGGAGUGAUGUUCUGGGAUGUUUCGGCCCUUGGCAGCUCUGGGUCUCCC [#2 Exclusion - Theophylline B Attempt #6 (HarryS)] | 1520 | 512 | 535 | 505 | 521 |
| GGAUAGGACAGAGGAUAUCCAGUGAUGUUGGAGAAUUCUCCUUCAACAUGUCACAAAAGUGGCAUGGGAGAAGGCUGUCCUAUCG [Mod of Eli's FmnBX 29 v2] | 388 | 120 | 122 | 99.7 | 108 |
| GGAUAGGACAGAGGAUAUCUCUGAGGCAAGAAAACUUGUCUCAAAAGAGAUGACUCAGUGAUGUUGAGAGAAGGCUGUCCUAUCG [FmnBX 8 - #SwitchBubble #StaticStem] | 256 | 143 | 144 | 147 | 153 |
| GGAUAGGACAGAGGAUAUGGUAGUGAUGUUACCAAACUGGUUAUUAAUGUCAGAAAACUGGCAAAUCCAGAAGGCUGUCCUAUCG [KL-XFMN-B13] | 180 | 63.8 | 75.7 | 60.5 | 62.9 |
| GGAUAGGACAGAGGAUAUGGUAGUGAUGUUACCAACAGCCUACUGUCAAUAAAGACGGUUGGCUGACCAGAAGGCUGUCCUAUCG [Mod of Eli's FmnBX 26 v1] | 564 | 132 | 145 | 148 | 142 |
| GGAUAGGACUGAGGAUAUGGGCUAGGCAAGAAUAACUUGUCUAGCAAAUCCAUGAGGAGUGAUGUUCCAGAAGGCGGUCCUAUCG [FmnBX 1 U10+G76] | 601 | 127 | 131 | 173 | 231 |
| GGAUAGGAUAGAGGAUAUGGUUUAUGCAAGAAUAACUUAUCGUGUAAAUCCAUAGGGAGUGAUGUUCCAGAAGGCUGUCCUAUCG [MatMod 12 - Jieux - Exclusion - FMN B] | 335 | 201 | 239 | 246 | 173 |
| GGAUAUGUAACAGAUACCAGCCGACGACAGUCACUGUGUCAUGUAGUGAUGUUACAAUCUGGCCCUUGGCAGCUGUCUCUGGUUU [theeternabot_exclusion_KL_Theo_B_27] | 310 | 214 | 278 | 250 | 250 |
